The target of the assay is actin filaments (F-actin) polymerised from chicken skeletal muscle actin (chicken) (UniProt P68139). Put plainly: TIRF microscopy (gliding filament assay); unpatterned PEG-silane coverslips with 50 nM myosin-5; 1 μM phalloidin-labelled F-actin pre-incubated with 1, 2, 5 or 10 nM CPC for 15 min at room temperature; imaging buffer with 2 mM ATP and calmodulin; about 25°C.

The text below walks through data of paper doi:10.1101/2023.08.15.553463.

The substance “capping protein complex (CPC): two CapZAB capping protein heterodimers covalently attached through a linker complex (from UniProt P47753 1-286; P47757-2 1-272)” returned a median time to rupture of paired filament complexes under myosin-5 tension of 26 to 29 s.
